The values below come from US8735085B2, “Method for diagnosing diseases using a protein or degradation product based on half-life” (Becton, Dickinson and Company, priority 2007, dated 2014).

Like-named read-outs stand apart in the source and are kept apart here. No end group written: not given here. Bounds are passed on as bounds.

The nature of series [1]: Time-course stability of spiked isotope-labeled (AQUA) peptides in serum and plasma samples, MALDI-TOF MS, first-order fit. It is filed as in vitro ADME, human. Particulars: for T1/2 (h) Citrate / T1/2 (h) EDTA / T1/2 (h) Heparin: plasma. An excerpt: Methods of determining the half-lives of parent peptides may be determined by a process, which includes by example first spiking the peptide into one or more collection vehicles such as blood collection tubes comprising samples of biological fluid. In some embodiments, the collection vehicle is a swab. As described in an example disclosed herein, commercially available blood collection tubes sampled for determining half-lives included P100, EDTA, citrate, or heparin blood collection containers. The peak intensities of the peptide in each sample are measured at various points in time. […] Accordingly, a line may be constructed for each sample. The slope of the line (−kobs), representing the kinetic rate of the first-order degradation, may be used to compute a half-life value. That is, a kinetic rate constant can be determined by fitting the data with: Ln(I)=−kobs t+C, where I is the peak intensity, or the peak area, t is the incubation time period in the study, C is a constant, and kobs is the observed (or apparent) rate constant. The half-life of the peptide is determined by t1/2=Ln(2)/kobs.
A direct test for stability of a peptide biomarker in a collected blood sample was carried out by monitoring its change during a time-course incubation. It was discovered that the spiked peptides themselves are subject to preanalytical degradation, and thus the spiked peptides became our focus for studying the relative instability of peptides in various blood samples. The stability of AQUA FPA was tested by adding it into either a serum or plasma sample (either BD P100, EDTA, citrate, or heparin plasma) collected from a single venipuncture, or a pooled serum or plasma sample from three healthy individuals. After the spiked sample was incubated for specified periods of time, the peptides were measured by MALDI-TOF MS.
Human blood from healthy individuals was directly drawn into evacuated tubes to obtain serum and plasma samples, as described previously (20). Briefly, serum tubes (BD product #366430) were placed at room temperature (r.t., approx. 24° C.) to clot for 60 min after the collection of the blood, and then centrifuged at 2,500×g for 15 min. at room temperature. Plasma tubes, including citrate tube (BD product #369714), heparin tube (BD product #367886), EDTA tube (BD product #367525), and BD P100 tube (BD product #366456), were spun immediately (within 10 min. after blood was drawn), for 15 min at 2,500×g, and at room temperature to minimize the handling condition and to prevent possible platelet activation. Both plasma and serum samples were pipetted out of the blood-collection tubes into Eppendorf tubes and were frozen within 15 minutes at −80° C. until use. With these optimized handling processes, full acquisition and processing time was minimized to approximately 30 minutes for plasma and 90 minutes for serum.
Isotopically labeled peptides were purchased from Sigma-Genosys (The Woodlands, Tex.). All peptides were synthesized with one stable isotopic amino acid residue, either L-Arginine-13C6 15N4, or L-Phenylalanine-13C9 15N1, with mass of 10 higher than its natural counterpart. The quality of each peptide was verified by HPLC, MALDI-TOF MS (FIG. 6), and amino acid analysis by the vendor with purity higher than 98%. […] The peptides were diluted with relevant solvents to make stocks of 400 fmol/μL for spiking experiments.
The frozen serum and plasma were thawed (once only) in a room temperature water bath for approximately 5 minutes, in order to minimize the dwell time by temperature exposure of the samples. Soluble AQUA peptide (50 μL in water) was spiked into a thawed serum or plasma sample (450 μL), resulting in a final concentration of 40 fmol/μL. The samples were incubated at room temperature. A 45-μL aliquot was withdrawn at each specified time, and quenched by adding 5 μL of 2% TFA solution. […]

The nature of series [2]: Sequential multi-step reaction (SMSR) kinetic modeling of FPA and its fragments in pooled heparin plasma. It is filed as in vitro ADME, human. Particulars: for incubation time at which the truncated daughter peptide was detected: AQUA FPA spiked in heparinized plasma; for apparent rate constants of the sequential reactions (k1-k5, truncation of the peptide) / half-lives: heparin plasma pooled from three healthy individuals; for apparent rate constants of the sequential reactions (k1-k5, truncation of the peptide): first-order SMSR simulation; for half-lives: four replicates, first-order SMSR; for T1/2 (h) in Heparin: SMSR model. As for the experimental part: Determining half-lives of the degradation products of the peptide, however, entails further modeling and calculations. For examples, sequential multi-step reaction (SMSR) model may be used. Particularly, the half-life of each daughter peptide (e.g., FPA-1, FPA-2, FPA-3, etc.) is determined using information related to one or more of its parent peptides as well as the measured behavior of the daughter peptides creation and further degradation. Accordingly, as represented below, the peptide FPA, referred to as “a” and having a kinetic rate constant k1, is used to determine the half-life of […], referred to as “b” and having a kinetic rate constant k2, which is used to determine the half-life of FPA-2, referred to as “c” and having a kinetic rate constant of k3, and so on.
Accordingly, kj is the kinetic rate constant of step reaction j. Ii is the measured signal (i.e., the peak intensity in MALDI-TOF MS) of peptide i. For example, measured intensities of each of the degradation products of the peptide over a 4 hour time span may be seen in FIG. 3. The peak intensity of, for example, FPA-4, occurs at 2 hours, where is measures 1216.670 m/z. A0 is the initial peak intensity of the parent peptide at time 0. Since Ii=K′iCi+I0, and I0=0 after baseline subtraction, then Ii=K′iCi or Ci=KiIi (1), where
Such calculations are performed for different points in time (i.e., different values of t), so as to plot the varying intensities of each degradation product against the reaction time, as shown in FIG. 4b. The rate constant of each step reaction, kj, can be computed by simulation of the equations (2b)-(6b). Then, the half-lives for each degradation product may be calculated by the equation t1/2=Ln(2)/kj.
For determining kinetic rate constants in a complex sequential reaction observed in this study, analytical solutions were derived from, a first order sequential multi-step reaction (SMSR), as explained above in the discussion concerning equations (1)-(6), (2a)-(6a), and (2b)-(6b). MATLAB (Version 7.0, Mathworks) was employed to numerically simulate this model with the experimental data, and reaction rate constants were then determined in the sequential pattern following the chain reaction sequences. The modeling process was optimized to achieve a best fit to R^2 (goodness-of-fit) calculation.
The observed decrease of the spiked AQUA FPA peptide is caused by the intrinsic amino-peptidase activity (9, 15, 20, 33) as its six fragments, sequentially truncated from the amino terminus, can be detected during the incubation (FIG. 3, FIG. 8). The process was easily observed in heparinized plasma, since the relative instability in this sample facilitated detection of the various truncated peptides within a reasonable experimental time frame (FIG. 3). […] During further incubation, smaller daughter peptides were detected: FPA-3 at 30 min, FPA-4 at one hour, and both FPA-5 and FPA-6 at two hours (FIG. 3, FIG. 8). None of these peptides was detected after eight-hour incubation.
The measurement of the degradation products was sufficiently unambiguous as to allow definition of a kinetic model of the degradation process. To determine the rate constants of the sequential reaction, the fragments of FPA: FPA-1, FPA-2, FPA-3, FPA-4 (FIG. 3), were measured in heparin plasma pooled from three healthy individuals with four replicates, and the average of peak intensities were modeled according to a first-order SMSR (FIG. 4). Simulation of the peak intensities of time-course MS (FIG. 4B) gave apparent rate constants of the sequential reactions: k1=2.1, k2=0.29, k3=1.96, k4=1.6, and k5=0.04 h^−1 for the first five step truncations (FIG. 4A), with goodness-of-fit (R^2) of 0.84, 0.78, 0.77, 0.87, and 0.76, respectively. Accordingly, the half-lives of FPA, FPA-1, FPA-2, FPA-3, and FPA-4 are 0.29, 2.1, 0.31, 0.38, and 15.2 hours, respectively (FIG. 4A). […]

On to “SSKITHRIHWESASLLR (listed as Homo sapiens) [C3f]”, for which, in series [1], the “peptidase-induced degradation of isotopic labeled peptide” value (“peptidase-induced degradation” for short) was “instability has been observed”. Also, in series [1] (human), the “T1/2 (h) Citrate” value is reported as 0.039 ± 0.01 h, the “T1/2 (h) EDTA” value is reported as 0.082 ± 0.01 h and the “T1/2 (h) Heparin” value is reported as 0.075 ± 0.01 h. In addition, the “T1/2 (h) Serum” value in series [1] (human, serum) came out at 0.079 ± 0.01 h.

Take “DFLAEGGGVR (listed as Homo sapiens) [FPA-6]”: the “incubation time at which the truncated daughter peptide was detected” value (“incubation time” below) in series [2] was “at two hours”.

On to “ADSGEGDFLAEGGGVR (listed as Homo sapiens) [FPA]”, for which, in series [1], the “detectable up until a period of time after collection” value was 12 to 48 h, the “detection of peak after incubation” value is recorded as “still easily detected at 48 hours” and the “time until undetectable after collection” value is on record as “undetectable in less than two hours”. Besides, in series [1] (human), the “T1/2 (h) Citrate” value was <0.1 h, the “T1/2 (h) EDTA” value stood at 3.51 ± 0.05 h and the “T1/2 (h) Heparin” value is given as 0.55 ± 0.02 h. Moreover, in series [1] (human, serum), the “T1/2 (h) Serum” value stood at 0.30 ± 0.01 h and the “half-life in serum (too short to be measured)” value is given as “less than 15 min”. Besides, in series [2], the “apparent rate constants of the sequential reactions (k1-k5, truncation of the peptide)” value (shortened to “apparent rate constants”) was 2.1 h⁻¹ and the half-lives stood at 0.29 h. The “T1/2 (h) in Heparin” value in series [2] (heparin plasma) turned out to be 0.29 h.

Regarding “GDFLAEGGGVR (listed as Homo sapiens) [FPA-5]”, the “incubation time” value in series [2] is reported as “at two hours”.

Take RPPGFSPFR [bradykinin]: the “peptidase-induced degradation” value in series [1] (blood samples, BNP, GLP-1, bradykinin data not shown) was “instability has been observed”.

With “GEGDFLAEGGGVR (listed as Homo sapiens) [FPA-3]”, in series [2], the “incubation time” value is listed as “at 30 min”; the “apparent rate constants” value is 1.6 h⁻¹; the half-lives was determined as 0.38 h. Also, the “T1/2 (h) in Heparin” value in series [2] (heparin plasma) stood at 0.38 h.

Take “EGDFLAEGGGVR (listed as Homo sapiens) [FPA-4]”: in series [2], the “incubation time” value is listed as “at one hour”; the “apparent rate constants” value was 0.04 h⁻¹; the half-lives was found to be 15.2 h. Further, in series [2] (heparin plasma), the “enhanced half-life compared to the parental FPA” value is 52 fold and the “T1/2 (h) in Heparin” value is reported as 15.2 h. Moreover, the “time at which the peak intensity occurs” value in series [2] (heparin plasma, 4 hour time span, FIG. 3) amounted to 2 h.

With “SGEGDFLAEGGGVR (listed as Homo sapiens) [FPA-2]”, in series [2], the “incubation time” value was “Time 0”; the “apparent rate constants” value is 1.96 h⁻¹; the half-lives worked out at 0.31 h. Moreover, the “T1/2 (h) in Heparin” value in series [2] (heparin plasma) is reported as 0.31 h.

On to “DSGEGDFLAEGGGVR (listed as Homo sapiens) [FPA-1]”, for which, in series [2], the “incubation time” value is “Time 0”; the “apparent rate constants” value was 0.29 h⁻¹; the half-lives came to 2.1 h. Also, in series [2] (heparin plasma), the “enhanced half-life compared to the parental FPA” value amounted to 7 fold and the “T1/2 (h) in Heparin” value is reported as 2.1 h.

As for BNP: brain natriuretic peptide, the “peptidase-induced degradation” value in series [1] is given as “instability has been observed”.

With GLP-1: glucagon-like peptide-1, the “peptidase-induced degradation” value in series [1] is given as “instability has been observed”.

“NGFKSHALQLNNRQIR-OH [C4, NGFKSHALQLNNRQIR]”: the “peptidase-induced degradation” value in series [1] is recorded as “instability has been observed”.
